From PMC3953565 (Methods in molecular biology (Clifton, N.J.), 2009)

Biological target: the molecule itself
Experiment: AUC

B1: recombinant human mitochondrial single-stranded DNA binding protein, mature form (natural protein, UniProt Q04837 17-148, looked up)
chain: ESETTTSLVLERSLNRVHLLGRVGQDPVLRQVEGKNPVTIFSLATNEMWRSGDSEVYQLGDVSQKTTWHRISVFRPGLRDVAYQYVKKGSRIYLEGKIDYGEYMDKNNVRRQATTIIADNIIFLSDQTKEKE
  stoichiometry N: 4
